Test results from patent US20210130436A1 (published 2021).

Key:
[1] = biological target: T1, CD28 endogenously expressed on Jurkat/IL2 reporter cells (human, UniProt P10747 19-220); test: flow cytometry, Jurkat cells (CD28)
T1 construct: also called Jurkats (CD28)

[2] = biological target: T2, human CTLA4 (CTLA-4), full-length, on CHO cells (human, UniProt P16410 36-223); test: flow cytometry, CHO cells stably expressing CTLA4
T2 construct: also called huCTLA4

[3] = biological target: T3, human PD-L1, full-length, on CHO cells (human, UniProt Q9NZQ7 19-290); test: flow cytometry, CHO/PD-L1 cells; MFI relative to WT CD80 ECD-Fc
T3 construct: also called huPD-L1; CD274
T3 sequence (Q9NZQ7 19-290): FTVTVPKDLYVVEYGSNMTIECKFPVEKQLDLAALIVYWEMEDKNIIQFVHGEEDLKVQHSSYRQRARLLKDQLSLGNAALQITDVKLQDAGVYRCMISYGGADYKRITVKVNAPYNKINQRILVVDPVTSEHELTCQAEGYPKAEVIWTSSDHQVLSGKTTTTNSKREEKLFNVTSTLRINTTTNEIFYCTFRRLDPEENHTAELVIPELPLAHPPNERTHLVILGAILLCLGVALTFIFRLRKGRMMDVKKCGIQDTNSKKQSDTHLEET

[4] = biological target: T2, human CTLA4 (CTLA-4), full-length, on …; test: flow cytometry, CHO/CTLA4 cells; MFI relative to WT CD80 ECD-Fc
[5] = biological target: T1, CD28 endogenously expressed on …; test: flow cytometry, Jurkat cells (CD28); MFI relative to WT CD80 ECD-Fc
[6] = biological target: T3, human PD-L1, full-length, on CHO cells; test: flow cytometry, CHO cells stably expressing PD-L1
[7] = biological target: T3, human PD-L1, full-length, on CHO cells; test: flow cytometry; PD-L1 MFI over CD28 MFI

T2 sequence (P16410 36-223): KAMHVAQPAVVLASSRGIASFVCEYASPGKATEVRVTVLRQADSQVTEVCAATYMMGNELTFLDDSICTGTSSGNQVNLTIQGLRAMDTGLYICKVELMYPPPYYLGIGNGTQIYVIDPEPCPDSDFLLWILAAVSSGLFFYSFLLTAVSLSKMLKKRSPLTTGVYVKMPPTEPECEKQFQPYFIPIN

| MFI at 33.3 nM [1] [MFI] | MFI at 33.3 nM [2] [MFI] | Fold change to WT CD80 [3] [fold] | Fold change to WT CD80 [4] [fold] | Fold change to WT CD80 [5] [fold] | MFI at 33.3 nM [6] [MFI] | Ratio of PDL1:CD28 [7] [ratio] | Binder |
| --- | --- | --- | --- | --- | --- | --- | --- |
| 131 | 41900 | 17.2 | 1 | 0.2 | 2200 | 16.8 | variant CD80 IgV-Fc D46V/L85Q (Fc fusion, not shown: small tags and cut ends; a dimerising Fc or GST) VIHVTKEVKEVATLSCGHNVSVEELAQTRIYWQKEKKMVLTMMSGVMNIWPEYKNRTIFDITNNLSIVILALRPSDEGTYECVVQKYEKDAFKREHLAEVTLSVKAD |
| 194 | 41300 | 51.1 | 1 | 0.3 | 6540 | 33.7 | variant CD80 IgV-Fc E35D/N48K (Fc fusion, not shown: small tags and cut ends; a dimerising Fc or GST) VIHVTKEVKEVATLSCGHNVSVEELAQTRIYWQKDKKMVLTMMSGDMKIWPEYKNRTIFDITNNLSIVILALRPSDEGTYECVVLKYEKDAFKREHLAEVTLSVKAD |
| 46.3 | 12900 | 47.6 | 0.3 | 0.1 | 6100 | 132 | variant CD80 IgV-Fc E35D/M47L/L85Q (Fc fusion, not shown: small tags and cut ends; a dimerising Fc or GST) VIHVTKEVKEVATLSCGHNVSVEELAQTRIYWQKDKKMVLTMMSGDLNIWPEYKNRTIFDITNNLSIVILALRPSDEGTYECVVQKYEKDAFKREHLAEVTLSVKAD |
| 501 | 44600 | 53.1 | 1.1 | 0.7 | 6800 | 13.6 | variant CD80 IgV-Fc E35D/M47V (Fc fusion, not shown: small tags and cut ends; a dimerising Fc or GST) VIHVTKEVKEVATLSCGHNVSVEELAQTRIYWQKDKKMVLTMMSGDVNIWPEYKNRTIFDITNNLSIVILALRPSDEGTYECVVLKYEKDAFKREHLAEVTLSVKAD |
| 268 | 38200 | 58.8 | 0.9 | 0.4 | 7520 | 28.1 | variant CD80 IgV-Fc E35D/D46V/M47L/L85Q (Fc fusion, not shown: small tags and cut ends; a dimerising Fc or GST) VIHVTKEVKEVATLSCGHNVSVEELAQTRIYWQKDKKMVLTMMSGVLNIWPEYKNRTIFDITNNLSIVILALRPSDEGTYECVVQKYEKDAFKREHLAEVTLSVKAD |
| 196 | 48000 | 31.6 | 1.2 | 0.3 | 4040 | 20.6 | variant CD80 IgV-Fc E35D/D46V/L85Q (Fc fusion, not shown: small tags and cut ends; a dimerising Fc or GST) VIHVTKEVKEVATLSCGHNVSVEELAQTRIYWQKDKKMVLTMMSGVMNIWPEYKNRTIFDITNNLSIVILALRPSDEGTYECVVQKYEKDAFKREHLAEVTLSVKAD |
| 1240 | 28600 | 218 | 0.7 | 1.8 | 27900 | 22.4 | variant CD80 IgV-Fc E35D/M47L/V68M (Fc fusion, not shown: small tags and cut ends; a dimerising Fc or GST) VIHVTKEVKEVATLSCGHNVSVEELAQTRIYWQKDKKMVLTMMSGDLNIWPEYKNRTIFDITNNLSIMILALRPSDEGTYECVVLKYEKDAFKREHLAEVTLSVKAD |
| 2180 | 34700 | 219 | 0.9 | 3.1 | 28000 | 12.8 | variant CD80 IgV-Fc D46V/M47L/V68M (Fc fusion, not shown: small tags and cut ends; a dimerising Fc or GST) VIHVTKEVKEVATLSCGHNVSVEELAQTRIYWQKEKKMVLTMMSGVLNIWPEYKNRTIFDITNNLSIMILALRPSDEGTYECVVLKYEKDAFKREHLAEVTLSVKAD |
| 567 | 40200 | 46.7 | 1 | 0.8 | 5980 | 10.5 | variant CD80 IgV-Fc D46V/M47L/L85Q (Fc fusion, not shown: small tags and cut ends; a dimerising Fc or GST) VIHVTKEVKEVATLSCGHNVSVEELAQTRIYWQKEKKMVLTMMSGVLNIWPEYKNRTIFDITNNLSIVILALRPSDEGTYECVVQKYEKDAFKREHLAEVTLSVKAD |
| 411 | 48000 | 58.8 | 1.2 | 0.6 | 7530 | 18.3 | variant CD80 IgV-Fc E35D/M47L (Fc fusion, not shown: small tags and cut ends; a dimerising Fc or GST) VIHVTKEVKEVATLSCGHNVSVEELAQTRIYWQKDKKMVLTMMSGDLNIWPEYKNRTIFDITNNLSIVILALRPSDEGTYECVVLKYEKDAFKREHLAEVTLSVKAD |
| 556 | 5330 | 17.7 | 0.1 | 0.8 | 2270 | 4.1 | variant CD80 IgV-Fc D46V/V68M (Fc fusion, not shown: small tags and cut ends; a dimerising Fc or GST) VIHVTKEVKEVATLSCGHNVSVEELAQTRIYWQKEKKMVLTMMSGVMNIWPEYKNRTIFDITNNLSIMILALRPSDEGTYECVVLKYEKDAFKREHLAEVTLSVKAD |
| 134 | 42900 | 20.2 | 1.1 | 0.2 | 2580 | 19.3 | variant CD80 IgV-Fc E35D (Fc fusion, not shown: small tags and cut ends; a dimerising Fc or GST) VIHVTKEVKEVATLSCGHNVSVEELAQTRIYWQKDKKMVLTMMSGDMNIWPEYKNRTIFDITNNLSIVILALRPSDEGTYECVVLKYEKDAFKREHLAEVTLSVKAD |
| 236 | 21800 | 5.9 | 0.5 | 0.3 | 757 | 3.2 | variant CD80 IgV-Fc E35D/K89N (Fc fusion, not shown: small tags and cut ends; a dimerising Fc or GST) VIHVTKEVKEVATLSCGHNVSVEELAQTRIYWQKDKKMVLTMMSGDMNIWPEYKNRTIFDITNNLSIVILALRPSDEGTYECVVLKYENDAFKREHLAEVTLSVKAD |
| 464 | 26200 | 222 | 0.6 | 0.7 | 28400 | 61.2 | variant CD80 IgV-Fc E35D/D46V/M47L/V68M/L85Q (Fc fusion, not shown: small tags and cut ends; a dimerising Fc or GST) VIHVTKEVKEVATLSCGHNVSVEELAQTRIYWQKDKKMVLTMMSGVLNIWPEYKNRTIFDITNNLSIMILALRPSDEGTYECVVQKYEKDAFKREHLAEVTLSVKAD |
| 159 | 28100 | 120 | 0.7 | 0.2 | 15300 | 96.3 | variant CD80 IgV-Fc E35D/M47L/V68M/L85Q (Fc fusion, not shown: small tags and cut ends; a dimerising Fc or GST) VIHVTKEVKEVATLSCGHNVSVEELAQTRIYWQKDKKMVLTMMSGDLNIWPEYKNRTIFDITNNLSIMILALRPSDEGTYECVVQKYEKDAFKREHLAEVTLSVKAD |
